This is an account of results in the supplement of paper PMC10724198.

± gives the standard deviation of the averaged measurements.

The subject of this data set is Saccharomyces cerevisiae. The experiment in a line: protein stability index of tFT-peptide fusion (C-terminal peptide) (PSI (0-1 scale)); higher = more stable (slower turnover). As to conditions: temperature: 30 C. How it is done: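 MPS profiling in S. cerevisiae of the yeast C-terminome library: the last 12 aa of each annotated ORF are fused to the C-terminus of a sfGFP-mCherry timer, after a GGGS linker. Cells are FACS-sorted into 8 mCherry/sfGFP bins and deep-sequenced. PSI runs from 0 (unstable) to 1 (stable); wild type and das1Δ backgrounds, two technical replicates each.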

[1] abbreviates: genetic background: das1 deletion.

Sequence TKAIEDAKKEMK [NUP2 C-terminal 12 aa] yielded a protein stability index under setting [1] of 0.714 ± 0.013 and a protein stability index (genetic background: wild type) of 0.737 ± 0.11.
In the same order, the values of TKISIRKAPKFF [MRPL31 C-terminal 12 aa] are 0.701 ± 0.019 and 0.656 ± 0.024.
Regarding TKNLVPGFSDLM [SEC61 C-terminal 12 aa], the protein stability index was 0.708 ± 0.012 under setting [1] and 0.676 ± 0.011 (genetic background: wild type).
In the same order, the values of TKNTCIRRLSNQ [YLR031W C-terminal 12 aa] are 0.709 ± 0.018 and 0.698 ± 0.036.
In the same order, the values of TLISGKEDGPTI [SRY1 C-terminal 12 aa] are 0.69 ± 0.028 and 0.701 ± 0.044.
Regarding TLKKRFGLVPGQ [NOP10 C-terminal 12 aa], the protein stability index was 0.7141 ± 0.0036 under setting [1] and 0.686 ± 0.029 (genetic background: wild type).
With TLKKVTQNFYFD [LMO1 C-terminal 12 aa], the protein stability index by setting is: under setting [1], 0.7094 ± 0.0054; (genetic background: wild type) 0.6724 ± 0.0018.
Turning to TLVADQEDDVIF [VMA8 C-terminal 12 aa], the protein stability index by setting is: under setting [1], 0.7039 ± 0.0067; (genetic background: wild type) 0.715 ± 0.025.
For the sequence TLVGTPGYRITL [RCE1 C-terminal 12 aa], the protein stability index stood at 0.7168 ± 0.0018 under setting [1] and 0.695 ± 0.02 (genetic background: wild type).
For TNDRLQSILHDL [MEF2 C-terminal 12 aa], the protein stability index reads like this: under setting [1], 0.7148 ± 0.0071; (genetic background: wild type) 0.702 ± 0.013.
Take TNERQLNPWICN [YML090W C-terminal 12 aa]: the protein stability index was 0.7061 ± 0.0031 under setting [1] and 0.688 ± 0.031 (genetic background: wild type).
For TPDVLAAGPQFE [PCK1 C-terminal 12 aa], in that order: 0.7065 ± 0.0036 and 0.6787 ± 0.0029.
For TQKKVDQRWKKH [SEN54 C-terminal 12 aa], in that order: 0.692 ± 0.016 and 0.737 ± 0.082.
For TQLVQKALERFK [RIC1 C-terminal 12 aa], in that order: 0.734 ± 0.025 and 0.676 ± 0.084.
With TSDGSASDLEII [MCM10 C-terminal 12 aa], the protein stability index runs as follows: under setting [1], 0.686 ± 0.0096; (genetic background: wild type) 0.692 ± 0.024.
For TSLEKQINSIKK [NSP1 C-terminal 12 aa], in that order: 0.753 ± 0.036 and 0.70199 ± 0.0005.
Regarding TSNGGVEETMKM [ARX1 C-terminal 12 aa], the protein stability index is, setting by setting: under setting [1], 0.6815 ± 0.00071; (genetic background: wild type) 0.676 ± 0.025.
Consider TSNSPSPDLMEK [SMA2 C-terminal 12 aa], for which the protein stability index stood at 0.7018 ± 0.0012 under setting [1] and 0.705 ± 0.042 (genetic background: wild type).
With TSPPEGMEPKHW [SGT1 C-terminal 12 aa], the protein stability index by setting is: under setting [1], 0.696 ± 0.013; (genetic background: wild type) 0.687 ± 0.0088.
For TVIFSCVPGRRV [RAX1 C-terminal 12 aa], in that order: 0.7205 ± 0.0062 and 0.709 ± 0.0011.
As for TVNYNDKTISGN [VPS30 C-terminal 12 aa], the protein stability index is 0.689 ± 0.022 under setting [1] and 0.692 ± 0.055 (genetic background: wild type).
For TYNSYTEPEELR [FMP27 C-terminal 12 aa], the protein stability index was 0.692 ± 0.025 under setting [1] and 0.716 ± 0.05 (genetic background: wild type).
For VAHRENLAFPPR [PRO1 C-terminal 12 aa], in that order: 0.732 ± 0.02 and 0.707 ± 0.012.
For “VARRITDHTCLM [YLR364C-A C-terminal 12 aa]”, in that order: 0.677 ± 0.0084 and 0.696 ± 0.031.
VCKFASWLFSKI [AMD2 C-terminal 12 aa]: the protein stability index runs as follows: under setting [1], 0.72 ± 0.041; (genetic background: wild type) 0.6687 ± 0.005.
Regarding VDHLTDPDIYIP [BUB2 C-terminal 12 aa], the protein stability index came out at 0.7 ± 0.017 under setting [1] and 0.7129 ± 0.0042 (genetic background: wild type).
For the sequence VERNHPVITNIS [YCR087W C-terminal 12 aa], the protein stability index worked out at 0.7114 ± 0.0043 under setting [1] and 0.733 ± 0.062 (genetic background: wild type).
In the same order, the values of VESPTLFCVCTQ [YPR170C C-terminal 12 aa] are 0.6115 ± 0.0024 and 0.66 ± 0.028.
For VFWKLKSRKLRI [MCH1 C-terminal 12 aa], in that order: 0.692 ± 0.0085 and 0.418 ± 0.033.
Consider VGENNYYAESII [COS111 C-terminal 12 aa], for which the protein stability index by setting is: under setting [1], 0.714 ± 0.024; (genetic background: wild type) 0.7022 ± 0.005.
In the case of VGRKPRLPKGKL [YCL002C C-terminal 12 aa], the protein stability index is, setting by setting: under setting [1], 0.758 ± 0.021; (genetic background: wild type) 0.842 ± 0.024.
For VHPNWSPFEVFK [GCY1 C-terminal 12 aa], in that order: 0.744 ± 0.033 and 0.738 ± 0.037.
For the sequence VHTELLIYCHDE [ASR1 C-terminal 12 aa], the protein stability index reads like this: under setting [1], 0.7068 ± 0.006; (genetic background: wild type) 0.6802 ± 0.0017.
Consider VIKQQNHQTTKI [HKR1 C-terminal 12 aa], for which the protein stability index under setting [1] is 0.68 ± 0.037 and the protein stability index (genetic background: wild type) was 0.705 ± 0.055.
For VISLAAQSKYVQ [MCO6 C-terminal 12 aa], in that order: 0.693 ± 0.019 and 0.697 ± 0.034.
Turning to VKDKVDAVYSSS [FAA1 C-terminal 12 aa], the protein stability index under setting [1] is 0.6925 ± 0.0045 and the protein stability index (genetic background: wild type) came out at 0.678 ± 0.011.
In the same order, the values of VKKNKPSIESKC [GSH1 C-terminal 12 aa] are 0.688 ± 0.0086 and 0.762 ± 0.03.
On to VLESFLAPMVNQ [BET5 C-terminal 12 aa], for which the protein stability index was determined as 0.688 ± 0.0073 under setting [1] and 0.71 ± 0.061 (genetic background: wild type).
In the same order, the values of VLIVLLVLAFIA [TLG1 C-terminal 12 aa] are 0.284 ± 0.013 and 0.286 ± 0.0034.
Turning to VMLLFIFLIMKL [PEP12 C-terminal 12 aa], the protein stability index stood at 0.186 ± 0.023 under setting [1] and 0.198 ± 0.01 (genetic background: wild type).
Take VMLNSVSISLNK [COG5 C-terminal 12 aa]: the protein stability index stood at 0.711 ± 0.014 under setting [1] and 0.6577 ± 0.00017 (genetic background: wild type).
In the same order, the values of VNHNWYSIYEST [TFC3 C-terminal 12 aa] are 0.729 ± 0.013 and 0.681 ± 0.0081.
In turn, VPLIIDSSGSAN [FTH1 C-terminal 12 aa] returned a protein stability index under setting [1] of 0.718 ± 0.011 and a protein stability index (genetic background: wild type) of 0.68 ± 0.0077.
For VRLRGRKRSMLG [BUD32 C-terminal 12 aa], in that order: 0.701 ± 0.02 and 0.665 ± 0.023.
The sequence VSGFKDEVLETV [RPS1B C-terminal 12 aa] came in with a protein stability index under setting [1] of 0.679 ± 0.037 and a protein stability index (genetic background: wild type) of 0.708 ± 0.029.
Consider VTTTFDKVHQDW [LEU1 C-terminal 12 aa], for which the protein stability index turned out to be 0.715 ± 0.017 under setting [1] and 0.714 ± 0.058 (genetic background: wild type).
In the same order, the values of VTVSNVWFNQLQ [YPL197C C-terminal 12 aa] are 0.70615 ± 0.00045 and 0.526 ± 0.014.
With VVCMVVLLAVLS [VAM3 C-terminal 12 aa], the protein stability index is, setting by setting: under setting [1], 0.148 ± 0.018; (genetic background: wild type) 0.171 ± 0.012.
In the same order, the values of VVGEDEKDDFFE [EFG1 C-terminal 12 aa] are 0.721 ± 0.024 and 0.691 ± 0.026.
VVGRYMRSGLKK [NOP1 C-terminal 12 aa] had a protein stability index under setting [1] of 0.6704 ± 0.005 and a protein stability index (genetic background: wild type) of 0.682 ± 0.028.
For VVNNRRQSRTPK [BLI1 C-terminal 12 aa], in that order: 0.707 ± 0.044 and 0.661 ± 0.0082.
Turning to VVYRHLHTKVSK [HAL5 C-terminal 12 aa], the protein stability index is, setting by setting: under setting [1], 0.682 ± 0.0075; (genetic background: wild type) 0.658 ± 0.0043.
In the same order, the values of VYGRNGNESHST [YGR050C C-terminal 12 aa] are 0.701 ± 0.019 and 0.689 ± 0.017.
For VYTSKTQYKFDI [YNR071C C-terminal 12 aa], in that order: 0.6849 ± 0.0021 and 0.694 ± 0.062.
“WFICRMLSKVTL [YNR003W-A C-terminal 12 aa]” had a protein stability index under setting [1] of 0.609 ± 0.012 and a protein stability index (genetic background: wild type) of 0.595 ± 0.012.
In the same order, the values of WHKSQLEDMNGY [YHL012W C-terminal 12 aa] are 0.683 ± 0.005 and 0.6568 ± 0.0052.
In the same order, the values of WLPELALLCALD [LAS21 C-terminal 12 aa] are 0.614 ± 0.0098 and 0.633 ± 0.017.
With WRKFGINSYSYS [DIA2 C-terminal 12 aa], the protein stability index was determined as 0.734 ± 0.016 under setting [1] and 0.759 ± 0.075 (genetic background: wild type).
On to WRSIGSGPIMEF [BUG1 C-terminal 12 aa], for which the protein stability index is, setting by setting: under setting [1], 0.706 ± 0.024; (genetic background: wild type) 0.719 ± 0.031.
In the same order, the values of WSDKLLQIYARC [SAE2 C-terminal 12 aa] are 0.5447 ± 0.0049 and 0.516 ± 0.045.
Regarding WVAHSKTKLATK [CAB2 C-terminal 12 aa], the protein stability index runs as follows: under setting [1], 0.677 ± 0.014; (genetic background: wild type) 0.70267 ± 0.00017.
In the same order, the values of YANLLYKFWNDQ [PCL7 C-terminal 12 aa] are 0.735 ± 0.011 and 0.672 ± 0.021.
For YASRGTGELWSP [NMD4 C-terminal 12 aa], in that order: 0.7031 ± 0.004 and 0.714 ± 0.0047.
For YAVFTVLFSIIF [SPS2 C-terminal 12 aa], in that order: 0.297 ± 0.013 and 0.295 ± 0.0078.
In the case of YCFYINCIMNRR [RRT15 C-terminal 12 aa], the protein stability index by setting is: under setting [1], 0.658 ± 0.031; (genetic background: wild type) 0.551 ± 0.00072.
In the same order, the values of YEIEPDFDRLAV [SVP26 C-terminal 12 aa] are 0.691 ± 0.022 and 0.681 ± 0.021.
In turn, YERERKLRGGKK [NOP14 C-terminal 12 aa] came in with a protein stability index under setting [1] of 0.702 ± 0.027 and a protein stability index (genetic background: wild type) of 0.692 ± 0.072.
